From US10787678

Molecular target: A. diaperinus cadherin-1 (AdCad1) (Alphitobius diaperinus)
Experiment: cell-based or functional assay

For “Cry3Bb toxin (from UniProt Q06117 64-652)”, which larval mortality on day 3, 100 ug/cm^2 Cry3Bb, larvae injected with AdCad1-dsRNA #1 (AdCad1 knocked down) is on record?
The larval mortality on day 3, 100 ug/cm^2 Cry3Bb, larvae injected with AdCad1-dsRNA #1 (AdCad1 knocked down) was 8%.

And the larval mortality on day 3, 100 ug/cm^2 Cry3Bb, larvae injected with AdCad1-dsRNA #2 (AdCad1 knocked down)?
The larval mortality on day 3, 100 ug/cm^2 Cry3Bb, larvae injected with AdCad1-dsRNA #2 (AdCad1 knocked down) was 11%.
